Reference: patent US20260185070A1, “CRISPR-Cas Effector Polypeptides, Lipid Nanoparticles, and Methods of Use Thereof” (The Regents of the University of California, priority 2022, published 2026)

Tests used:
[1] = test system: NPCs; assay: NPC viability with LNPs containing different pegylated lipids; assay type: cell-based, mouse
Excerpt: Several pegylated lipids, commercial and synthetic, were examiner for their ability to encapsulate and deliver iGeoCas9 RNPs in LNPs (FIG. 48c). […] The reduced toxicity and enhanced delivery efficiency of these 3 PEGylated lipids stems from the pH-sensitive, acid-degradable acetal linker used in their synthesis (FIG. 49): the labile acetal linker could be cleaved in the late endosome stage of LNP delivery with a pH of 5-6, which frees the PEG moiety from the lipid molecules to reduce cytotoxicity and meanwhile destabilizes the endosome to promote the release of RNP into the cytosol. Further optimization of other parameters (e.g., mole and volume ratios of lipids to RNP, and salt concentration in the buffer, FIG. 50b) in LNP assembly established two sets of lipid formulations, i.e., standard formula (with DOTAP as the cationic lipid) and cationic formula (with ADC as the cationic lipid), which encapsulate GeoCas9 RNPs with good particle uniformity (diameter: 170-180 nm, PDI: 0.13-0.17) (FIG. 41b).

[2] = test system: EGFP transgene in a model HEK293T cell line; assay: EGFP-to-BFP HDR by LNP co-delivery of RNP and ssDNA template in HEK293T cells; assay type: cell-based, human; conditions: additive in RNP LNPs; in words
Excerpt: It was investigated if the co-delivery of iGeoCas9 RNPs and ssDNA templates in LNPs could switch EGFP to the blue fluorescent protein (BFP) in a model HEK293T cell line (FIG. 43b). In this cell assay, editing of the chromophore Thr-Tyr-Gly in the EGFP transgene followed by HDR to install a Ser/Thr-His-Gly chromophore turns EGFP into BFP. Four sgRNAs, rEGFP-R1 to R4, were designed to target the coding and non-coding strands in the chromophore region for editing. To avoid possible recutting events after the incorporation of the desired edits, four ssDNA HDR templates were designed to introduce GFP-to-BFP edits together with additional silent mutations in the DNA sequence. […] The HDR level was quantified to be between 20-40% by flow cytometry with 50-75% of non-homologous end-joining (NHEJ) indicated as EGFP knockdown (FIGS. 4b and 51).
LNP delivery: 4-6.5k cells/well were seeded in 96-well plates 48 hours prior to LNP treatment (HEK293 cells: 4-5k. NPCs: 5-6k, and 16HBEge cells: 6-6.5k). The culture media was refreshed 24 hours after LNP treatment. HEK293T cells were split after 2 additional days with a ratio of […] based on cell confluency. […]
Cell fluorescence was assayed on an Attune NxT acoustic focusing cytometer (Thermo Fisher Scientific) equipped with 554 nm excitation laser and 585/16 emission filter (tdTomato). […] Data were analyzed using Attune Cytometric Software v5.1.1.

[3] = test system: ccdB toxin gene; assay: bacterial dual-plasmid selection assay (Cas9 cleavage of ccdB plasmid, survival rate); assay type: cell-based, E. coli; conditions: for survival rate: sgRNA target sequence #6, PAM ggatGAAA
Description: A bacterial dual-plasmid selection system was employed for the directed evolution of GeoCas9, which has been successfully employed for engineering other CRISPR Cas effectors. […] To search for a reliable evolution starting point with minimal activity in the E. coli assay, 20 different sgRNAs that target the ccdB gene at the protospacers associated with different PAM sequences were screened (FIG. 46d) and selection under two sets of conditions was performed (37 C or 30 C for 1.5 hours). […] Libraries of GeoCas9 mutants were generated by targeting different domains of the protein for random mutagenesis (FIG. 46a) and then subjected to the selection system under the conditions at 30° C.
A chloramphenicol-resistant (CAM+) bacterial expression plasmid was built to have the insert gene of GeoCas9 together with its corresponding sgRNA that targets the ccdB gene in the selection plasmid with a PAM of GAAA (g6). Libraries of GeoCas9 mutants were generated by error-prone PCR to introduce random mutagenesis in three different regions (BH-Rec, RuvC-HNH-WED, and WED-PI). The error-prone PCR (with an error rate of 3- to 5-nucleotide mutations per kilobase) was carried out with the Taq DNA polymerase (New England BioLabs) in a reaction containing 2 μl of 10 mM primers, 1.5 μl of 10 mM MnCl2, 2 ng of template plasmid. The plasmid libraries were generated by ligating the mutated fragments with the remaining part of the plasmid through Gibson assembly. The plasmid libraries (-100 ng DNA after clean-up) were electroporated into 50 μl of electronically competent cells made from E. coli strain BW25141(DE3) that contains the selection plasmid encoding the arabinose-inducible ccdB toxin gene. After recovery of the electroporated bacteria in 750 μl of SOB for 1.5 hours at 30° C., the bacteria culture was concentrated; 1% of the total culture was plated onto a Petri agar dish containing only CAM (as control), and the remainder culture was plated on another Petri agar-dish containing both arabinose and CAM. […]

[4] = protein melting temperature, thermal shift assay; assay type: physicochemical
Description: Protein melting temperatures were measured using the thermal shift assay (GloMelt™, CAT #33021). The assay was performed on a quantitative PCR system with a temperature increase rate of 2° C./min. The protein melting temperatures were determined as the peak values in the derivative curves of the melting curves.

DMG-PEG
toxicity / biocompatibility with NPCs [1]: detrimental to NPC viability

heparin
effect of anionic polymer additive on editing levels [2]: reduced editing

B1: GeoCas9: Geobacillus stearothermophilus CRISPR-Cas effector polypeptide, SEQ ID NO: 1; thermostable type II-C Cas9 (protein, listed as Geobacillus stearothermophilus)
chain: MRYKIGLDIGITSVGWAVMNLDIPRIEDLGVRIFDRAENPQTGESLALPRRLARSARRRLRRRKHRLERIRRLVIREGILTKEELDKLFEEKHEIDVWQLRVEALDRKLNNDELARVLLHLAKRRGFKSNRKSERSNKENSTMLKHIEENRAILSSYRTVGEMIVKDPKFALHKRNKGENYTNTIARDDLEREIRLIFSKQREFGNMSCTEEFENEYITIWASQRPVASKDDIEKKVGFCTFEPKEKRAPKATYTFQSFIAWEHINKLRLISPSGARGLTDEERRLLYEQAFQKNKITYHDIRTLLHLPDDTYFKGIVYDRGESRKQNENIRFLELDAYHQIRKAVDKVYGKGKSSSFLPIDFDTFGYALTLFKDDADIHSYLRNEYEQNGKRMPNLANKVYDNELIEELLNLSFTKFGHLSLKALRSILPYMEQGEVYSSACERAGYTFTGPKKKQKTMLLPNIPPIANPVVMRALTQARKVVNAIIKKYGSPVSIHIELARDLSQTFDERRKTKKEQDENRKKNETAIRQLMEYGLTLNPTGHDIVKFKLWSEQNGRCAYSLQPIEIERLLEPGYVEVDHVIPYSRSLDDSYTNKVLVLTRENREKGNRIPAEYLGVGTERWQQFETFVLTNKQFSKKKRDRLLRLHYDENEETEFKNRNLNDTRYISRFFANFIREHLKFAESDDKQKVYTVNGRVTAHLRSRWEFNKNREESDLHHAVDAVIVACTTPSDIAKVTAFYQRREQNKELAKKTEPHFPQPWPHFADELRARLSKHPKESIKALNLGNYDDQKLESLQPVFVSRMPKRSVTGAAHQETLRRYVGIDERSGKIQTVVKTKLSEIKLDASGHFPMYGKESDPRTYEAIRQRLLEHNNDPKKAFQEPLYKPKKNGEPGPVIRTVKIIDTKNQVIPLNDGKTVAYNSNIVRVDVFEKDGKYYCVPVYTMDIMKGILPNKAIEPNKPYSEWKEMTEDYTFRFSLYPNDLIRIELPREKTVKTAAGEEINVKDVFVYYKTIDSANGGLELISHDHRFSLRGVGSRTLKRFEKYQVDVLGNIYKVRGEKRVGLASSAHSKPGKTIRPLQSTRD
survival rate ([3]; selection 30° C. for 1.5 hours): < 0.1%
survival rate ([3]; selection 37 C for 1.5 hours): 2-5%
survival in the bacterial assay ([3]; validation of selected mutant vs wild-type, temperature not stated): < 5%
Tm (thermostability) [4]: 60 °C
